The source of these data is the DeepSol protein solubility set.

The series in a line: soluble on expression in E. coli; label from the status in PepcDB or PDB records.
On to “MILVFLGPPGAGKGTQAKRLAKEKGFVHISTGDILREAVQKGTPLGKKAKEYMERGELVPDDLIIALIEEVFPKHGNVIFDGFPRTVKQAEALDEMLEKKGLKVDHVLLFEVPDEVVIERLSGRRINPETGEVYHVKYNPPPPGVKVIQREDDKPEVIKKRLEVYREQTAPLIEYYKKKGILRIIDASKPVEEVYRQVLEVIGDGN”, for which the “soluble on expression in E. coli” value was “soluble”. Regarding “MGSDKIHHHHHHMAYLTIIKNGETIDHRKYGLKLLSFRKESLTHRTNFEEIGGRHGAIDTGTTFGERKLKATFLMQGVDHLDYQLMIDEVYALFACEDSIELIDSRQPGKVWTVKPSSTFEPDDLNPRSGKFEIEFTSPLPFASSYGSTLDPFTFGEEVWQIGQGLIPSDSLVYRHRTTRFSIFNAGNVEVDPCLEMPLNIVYKGASSNFSIKNKTTGQTISYNGTSKSTDSIKLEGLRHLKNGISIYGNTNRGYVSLKPGWNDFELTGTSGSFEITFDFFFFYK”, the “soluble on expression in E. coli” value is on record as “not soluble”. As for “SKDIDMGKEYIIPSPGYRSDRDRSAVPGQHRDPEEPRFRRTRSLECQDALETAARVEGLSLDISVHSHLQILDEEHSKGKYHHGLSVLKPFRTTTKHQHPVDNAGLFSYMTFSWLSPLARVVHKKGELLMEDVWPLSKYESSDVNSRRLERLWQEELNEVGPDAASLRRVVWIFCRTRLILSIVCLMITQLAGFSGPNFQDGCILRSE”, the entry is “soluble”. With “MGSDKIHHHHHHMTTDNAKAQLTSSSGGNIIVVSNRLPVTITKNSSTGQYEYAMSSGGLVTALEGLKKTYTFKWFGWPGLEIPDDEKDQVRKDLLEKFNAVPIFLSDEIADLHYNGFSNSILWPLFHYHPGEINFDENAWLAYNEANQTFTNEIAKTMNHNDLIWVHDYHLMLVPEMLRVKIHEKQLQNVKVGWFLHTPFPSSEIYRILPVRQEILKGVLSCDLVGFHTYDYARHFLSSVQRVLNVNTLPNGVEYQGRFVNVGAFPIGIDVDKFTDGLKKESVQKRIQQLKETFKGCKIIVGVDRLDYIKGVPQKLHAMEVFLNEHPEWRGKVVLVQVAVPSRGDVEEYQYLRSVVNELVGRINGQFGTVEFVPIHFMHKSIPFEELISLYAVSDVCLVSSTRDGMNLVSYEYIACQEEKKGSLILSEFTGAAQSLNGAIIVNPWNTDDLSDAINEALTLPDVKKEVNWEKLYKYISKYTSAFWGENFVHELYSTSSSSTSSSATKN”, the “soluble on expression in E. coli” value was “not soluble”. For the sequence “MGSDKIHHHHHHMDERWMVMKITIVFENHAGYRKGLIGYHGFSALVEANGYRVLVDTGTDGKVLLNNMSELGISPDDIDALFITHGHYDHTGGLRELLSARTEALDIYAHPGIFKRRLALKPKKREIGIPFTREELEELGGKFILSDKSKEILPGFISSGEIERITWDRAVGYFPDGSKDPVRDDMALIVEEGSKSVVITGCGHSGIINIAIHSKKLTNNRIAALIGGFHLKGIERSLLDEAVKKLRELEIEKLYPGHCTGIEEFAYLWSKFGNVEGIHVGKEIKI”, the “soluble on expression in E. coli” value was “not soluble”. For “MMGNKLTLPAELPDEQDLRAVLAYNMRLFRVNKGWSQEELARQCGLDRTYVSAVERKRWNIALSNIEKMAAALGVAAYQLLLPPQERLKLMTNSADTRQMPSESGI” the value was “not soluble”. With “MRVIVFFDLPVITPENRHNYSVFRKYLIKSGFIMQQKSVYSKLVLNLTNRDSIVKSIEKNKPPEGLVEVLTVTEKQYAKMEIIIGESKTEYLNTDERLVVLLEHHHHHH”, the “soluble on expression in E. coli” value was “soluble”. Turning to “METFYRTHSYLVEHTNAPVRRDLMDEIDWNDRLIGIKGTRGVGKTTFLLQYAKEKFGTDHSCLFINMNNFYFSKYTLVEFAAEFVKRGGKVLLIDQVFKYPEWSHDLRACYEMFPTLKIIFTGSSVMRLKEENPELSGIAKVYYLRGFSFREYLNLQSGNCFRAYTLQEILENHEQIAKTILRNVKPLDYFQDYLHHGFYPFFLEKRNFSENLLKTMNMMIEVDILLIKQIELKYLSKIKKLLYLLAVDGPVAPNVSQLATEIQTSRATVMNYIKYLADARLINMVYPKGEEFPKKPSKLMMHNTNLMYSIYPVKVEEQDVLDTFFMNTLYKDHKLYKGDKGTSFMVDNGLHFRICAEGCKFKNNPNVYYALHKLELGHGNMIPLWLFGFLY”, the “soluble on expression in E. coli” value is given as “not soluble”. As to “MGSDKIHHHHHHELPDNRTELNENNVGKILLSAYPTTAICEMGEMSSDNTDAYPNRFSSFNRLQEDLYKWADSAEQDQDSPHALWESCYMAISACNEVLKVIEDAGNPASLSAEKGEALVCRAYAHFLLANIFCNAYSSQASSDLGIPYMKTIETTVSPDYQRGTLEEVYQNIEKDLLEGLDLVTDIYAVPKYHFTKKAAQAFAARFYLYYVKSDKSNYTKVIDYATKVLGSNPATSVRDWKSLGALDINGSVQPNAYVDATNGANLLLVSAGSYWGYVHAPYGLGERYAHGPKVGNETCNSVGPWGSDYYMGVWSNSSALPTKIVVMKITQYKEVVDAVAGTINGHMINAAFTTDETLLCRAEAYAMKEMYPQAIADLNIWREAYTRSTTPLTTESINDFYGSMEYYTPTESTVKKKLNPDFTITNETQENVIHCILHARRLTTLHEGLRWQDIKRYGITIYRRLMNDNGTITVTDKLEPNDPRRAIQIPSDVISAGLKPNPRTK”, the “soluble on expression in E. coli” value is listed as “not soluble”. On to “MSLTIKLITFDLDDTLWDTAPVIVSAEATLRQWLTEHAPNLGGVPVEHLWAIRERVLLAQPNLKHRISALRRQVLFHALEEAGYDHAQANQLADQSFEVFLHARHQLEIFPEVQPTLEALANHFALGVVTNGNADVRRLGLADYFKFALCAEDIGIAKPDARLFHEALQRGEATADTAVHIGDHPGDDIAGAQQAGLRAIWFNPNGKTWEAEHAPDAEIRSLNELPGLLARWHRGAEGHHHHHH”, for which the “soluble on expression in E. coli” value is “soluble”. As for “MGGSHHHHHHGMASAQETNQTPGPMLCSTGCGFYGNPRTNGMCSVCYKEHLQRQQNSGRMSPMGTASGSNSPTSDSASVQRADTSLNNCEGAAGSTSEKSRNVPVAALPVTQQMTEMSISREDKITTPKTEVSEPVVTQPSPSVSQPSTSQSEEKAPELPKPKKNRCFMCRKKVGLTGFDCRCGNLFCGLHRYSDKHNCPYDYKAEAAAKIRKENPVVVAEKIQRI”, the “soluble on expression in E. coli” value was “not soluble”.

Regarding “MGSDKIHHHHHHMDTDLLKTFLEVSRTRHFGKAAENLYLTRSAVSFRVKQLESILGVALFERQRNNIQPTPAGERMLGHAEAVLTAWERAKQDVSLSQLQSTQLAIGAGPNIWDAYLQGYLQGLHVGLPGVALRTEVLPANAMTRQLMDRTLDIAISFDPPKLDQFELVQLGQINLLLVSSLKGQTGTAVLPGQYVKVDWGTAFNIVHAQEYASLPVPTLHTSSARIALDFILNNGGCAFLPEHLVQHALHSGELHHVSGASAISRNVYVAYWAENDRLAQIKQAIDFLRDDGSVFAHATI”, the “soluble on expression in E. coli” value was “not soluble”.

As to “MPEQLKQRVETCYQQAEAFFKRRFPRPEVSFKLRGQKAGVAHLHENLLRFNLQLYRENQEDFLRQTVAHEVAHLVAHQLFGDRIQAHGEEWQLIMRGVYELPPNRCHNYDVQRRAVTRYIYRCPCPQSDFPFTAQRHKLVHQGRRYLCKRCREVLVYSGETRVE”, the “soluble on expression in E. coli” value is given as “soluble”. “NQNQTQHKQRPQATAEQIRLAQMISDHNDADFEEKVKQLIDITGKNQDECVIALHDCNGDVNRAINVLLEGNPDTHSWEMVGKKKGVSGQK”: the “soluble on expression in E. coli” value is “soluble”. For “MSLSINSREVLAEKVKNAVNNQPVTDMHTHLFSPNFGEILLWDIDELLTYHYLVAEVMRWTDVSIEAFWAMSKREQADLIWEELFIKRSPVSEACRGVLTCLQGLGLDPATRDLQVYREYFAKKTSEEQVDTVLQLANVSDVVMTNDPFDDNERISWLEGKQPDSRFHAALRLDPLLNEYEQTKHRLRDWGYKVNDEWNEGSIQEVKRFLTDWIERMDPVYMAVSLPPTFSFPEESNRGRIIRDCLLPVAEKHNIPFAMMIGVKKRVHPALGDAGDFVGKASMDGVEHLLREYPNNKFLVTMLSRENQHELVVLARKFSNLMIFGCWWFMNNPEIINEMTRMRMEMLGTSFIPQHSDARVLEQLIYKWHHSKSIIAEVLIDKYDDILQAGWEVTEEEIKRDVADLFSRNFWRFVGRNDHVTSVKVEQQTEGHHHHHH”, the “soluble on expression in E. coli” value is on record as “soluble”.

For the sequence “MTLDELNRLLDPQVLALIDAHASDDPATFAMQFHGRGDLPVRAIAEQIACRKKAAAKLPSLSRFPMLYTRL”, the “soluble on expression in E. coli” value is “not soluble”. “MPKVRTKDLIEQFQLELISGEEGIHRPIDTSDLSRPGIEMAGFFTYYPADRVQLLGKTELTFFDTLTSDQKQERMKALCTEETPCIIVTRNQDVPDELLQASRESGMPLLRSSQTTTRLSSRLTNYLEGKLAPTTAVHGVLVDIYGVGVLITGQSGVGKSETALELVKRGHRLVADDSVEIRQEDEDMLVGSSPDLIEHLLEIRGLGIINVMTLFGAGAVRNYKRITLVINLEIWDQKKNYDRLGLDEEKMKIIDTELTKITLPVRPGRNLAVIIEVAAMNFRLKRMGVNAAQQFSERLMSAIELGNQE”: the “soluble on expression in E. coli” value is “not soluble”. As for “MSLTARRFLNELADLYGVATSYTDYKGAHIEVSDDTLVKILRALGVNLDTSNLPNDDAIQRQIALFHDREFTRPLPPSVVAVEGDELVFPVHVHDGSPADVHIELEDGTQRDVSQVENWTAPREIDGIRWGEASFKIPGDLPLGWHKLHLKSNERSAECGLIITPARLSTADKYLDSPRSGVMAQIYSVRSTLSWGMGDFNDLGNLASVVAQDGADFLLINPMHAAEPLPPTEDSPYLPTTRRFINPIYIRVEDIPEFNQLEIDLRDDIAEMAAEFRERNLTSDIIERNDVYAAKLQVLRAIFEMPRSSEREANFVSFVQREGQGLIDFATWCADRETAQSESVHGTEPDRDELTMFYMWLQWLCDEQLAAAQKRAVDAGMSIGIMADLAVGVHPGGADAQNLSHVLAPDASVGAPPDGYNQQGQDWSQPPWHPVRLAEEGYIPWRNLLRTVLRHSGGIRVDHVLGLFRLFVMPRMQSPATGTYIRFDHNALVGILALEAELAGAVVIGEDLGTFEPWVQDALAQRGIMGTSILWFEHSPSQPGPRRQEEYRPLALTTVTTHDLPPTAGYLEGEHIALRERLGVLNTDPAAELAEDLQWQAEILDVAASANALPAREYVGLERDQRGELAELLEGLHTFVAKTPSALTCVCLVDMVGEKRAQNQPGTTRDMYPNWCIPLCDSEGNSVLIESLRENELYHRVAKASKRDEGHHHHHH”, the “soluble on expression in E. coli” value is “soluble”. On to “AGQQQPLPVPPLLESRRGQPLFMTVQRAHWSFTPGTRASVWGINGRYLGPTIRVWKGDDVKLIYSNRLTENVSMTVAGLQVPGPLMGGPARMMSPNADWAPVLPIRQNAATLWYHANTPNRTAQQVYNGLAGMWLVEDEVSKSLPIPNHYGVDDFPVIIQDKRLDNFGTPEYNEPGSGGFVGDTLLVNGVQSPYVEVSRGWVRLRLLNASNSRRYQLQMNDGRPLHVISGDQGFLPAPVSVKQLSLAPGERREILVDMSNGDEVSITCGEAASIVDRIRGFFEPSSILVSTLVLTLRPTGLLPLVTDSLPMRLLPTEIMAGSPIRSRDISLGDDPGINGQLWDVNRIDVTAQQGTWERWTVRADEPQAFHIEGVMFQIRNVNGAMPFPEDRGWKDTVWVDGQVELLVYFGQPSWAHFPFYFNSQTLEMADRGSIGQLLVNPVPRSHHHHHH”, for which the “soluble on expression in E. coli” value is on record as “soluble”.

As for “MIKVDMTVDAKGLSCPMPIVRTKKAINELQPGQVLEVQATDKGSKADIKAWAESTGHQYLGTIEENGVLKHYIRKSAEHETRKETTFPHVVSNEELQEKLHDPDSFVLDVREPAEYAFGHIPGAVSIPLGELENRMAELPKDKTIYVVCRTGTRSDLAAQKLAEKGFDRVRNVIPGMSQWNGPLDSAQS”, the “soluble on expression in E. coli” value was “soluble”. “AHHHHHHGSTQKKLIEYTNPSTSRRKITRIPIDSPDYPPLLKQIKDPPKIIYAIGNVRLLNKPAVAIVGTRQPSERGEYYAEKVAEFYAKQGFVIVSGLALGIDSIVIKTALKTGAHVIGVLPSPVNDIVPKSNEKLAEKIIRSGGLLISELPEGTKPKKYHFVRRNRIISGISFAVVVIESELKDGTMHTVKFAKQQRRIILVTNLPASGNAKLKNEGFPILDF”: the “soluble on expression in E. coli” value is on record as “soluble”.
